Entries after “also recorded” stand apart in the source; their conditions may differ.
Columns and labels:
[1] = tested on: SK-BR-3 human breast cancer cells; assay: MTS cell proliferation assay, lunasin in combination with curcumin; assay type: cell-based; details: FIG. 7; for effect on the antiproliferative effect of curcumin: SK-BR-3 breast cancer cells, in combination with curcumin
Experimental: FIGS. 7A and 7B include the results of MTS cell proliferation assays, using SK-BR-3 human breast cancer cells, performed in the absence or presence of either synthetic lunasin or purified soybean-derived lunasin in combination with curcumin over a 1-3 day period.
MTS cell proliferation assays using SK-BR-3 human breast cancer cells were performed in the absence or presence of either synthetic lunasin or purified soybean-derived lunasin in combination with curcumin over a 2-3 day period. SK-BR-3 cells, whose growth were unaffected by lunasin alone, were inhibited up to 98% when combined with curcumin.
With reference to FIG. 7, synthetic lunasin and highly purified soybean-derived lunasin were used in combination with curcumin in an in vitro cell proliferation assays to assess the activity of lunasin against specific cancer cell lines.

human histone H3 (hH3.3) = human histone H3 (hH3.3) (Homo sapiens, UniProt P84243); assay: in vitro histone binding assay (microtiter plate, anti-lunasin antibody, absorbance at 450 nm); details: FIG. 3
Source text: (§1) The ability of lunasin, purified from soybean white flake in accordance with the presently-disclosed subject matter, to bind the cores histones H3 and H4 was studied. […] To confirm the biological activity of the lunasin purified from soybean white flake using the methods in the subject matter disclosed herein, an in vitro binding assay was used to assess binding to the human H3 and H4 proteins.
(§2) Increasing amounts of histone 3.3 (hH3.3) and histone 4 (hH4) were bound to wells of a […] microtiter plate. Different amounts of either synthetic lunasin or purified lunasin were added to the wells and allowed to bind. The concentration of lunasin bound was determined using a polyclonal antibody against lunasin and a horseradish peroxidase conjugated antibody that recognizes the lunasin antibody. Binding was quantitated by measuring the absorbance at 450 nm.

human histone H4 (hH4) = human histone H4 (hH4) (Homo sapiens, UniProt P62805); assay: as above; details: FIG. 3
Source text: as §1, §2

[2] = tested on: MDA-MB-231, adenocarcinoma, mammary gland origin; assay: MTS cell proliferation assay; assay type: cell-based, human; details: lunasin 30 or 100 μM, complex 10 or 30 μM, 72 hours, FIG. 4
Experimental: (§3) The ability of lunasin, purified from soybean white flake in accordance with the presently-disclosed subject matter, to inhibit the proliferation of specific cancer cell lines was studied. Recent studies have shown that lunasin and lunasin-containing protein preparations can inhibit the proliferation of several cancer cell lines in vitro. To further assess and confirm the biological activity of lunasin and the lunasin-containing complex, cell proliferation assays were conducted with a panel of established cancer cell lines.
(§4) A panel of cancer cell lines was collected from colleagues or purchased from the American Type Culture Collection. Cells were grown in the appropriate medium and treated with PBS (control), lunasin (30 or 100 μM), or the lunasin-containing complex (10 or 30 μM) for 72 hours. Cell viability was assessed using a standard [3-(4,5-dimethylthiazol-2-yl)-5-(3-carboxymethoxy-phenyl)-2-(4-sulfo-phenyl)-2H-tetrazolium (MTS) assay. The data shown (FIG. 4) represent the number of viable cells relative to the PBS-treated controls. The human cell lines tested were: H661, non-small cell lung cancer; H1299, non-small cell lung cancer; SKBR3, adenocarcinoma mammary gland origin; MDA-MB-231, adenocarcinoma, mammary gland origin; MCF-7, adenocarcinoma, mammary gland origin; and HT-29, adenocarcinoma, colon origin.

[3] = tested on: H661, non-small cell lung cancer; assay: MTS cell proliferation assay; assay type: cell-based, human; details: lunasin 30 or 100 μM, complex 10 or 30 μM, 72 hours, FIG. 4
Experimental: as §3, §4

[4] = tested on: H1299, non-small cell lung cancer; assay: MTS cell proliferation assay; assay type: cell-based, human; details: lunasin 30 or 100 μM, complex 10 or 30 μM, 72 hours, FIG. 4
Experimental: as §3, §4

[5] = tested on: MCF-7, adenocarcinoma, mammary gland origin; assay: MTS cell proliferation assay; assay type: cell-based, human; details: complex 10 or 30 μM, 72 hours, FIG. 4
Experimental: as §3, §4

[6] = tested on: HT-29, adenocarcinoma, colon origin; assay: MTS cell proliferation assay; assay type: cell-based, human; details: complex 10 or 30 μM, 72 hours, FIG. 4
Experimental: as §3, §4

[7] = tested on: SKBR3, adenocarcinoma mammary gland origin; assay: MTS cell proliferation assay; assay type: cell-based, human; details: complex 10 or 30 μM, 72 hours, FIG. 4
Experimental: as §3, §4

[8] = tested on: panel of cancer cell lines; assay: MTS cell proliferation assays with a panel of established cancer cell lines; assay type: cell-based, human; details: 72 hours, FIG. 4
Experimental: as §3, §4

| Molecule | growth of SK-BR-3 cells, lunasin alone ([1]; without curcumin, 2-3 day period) | binding to human histone H3 (human histone H3 (hH3.3)) | binding to human histone H4 (human histone H4 (hH4)) | preference of binding, H4 versus H3 (human histone H4 (hH4)) | growth/proliferation of MDA-MB-231 cells (viable cells relative to PBS-treated controls) [2] | growth/proliferation of H661 cells (viable cells relative to PBS-treated controls) [3] | growth/proliferation of H1299 cells (viable cells relative to PBS-treated controls) [4] | effect on the antiproliferative effect of curcumin [1] | proliferation of MCF-7 cells (viable cells relative to PBS-treated controls) [5] | proliferation of HT-29 cells (viable cells relative to PBS-treated controls) [6] | proliferation of SKBR3 cells (viable cells relative to PBS-treated controls) [7] | antiproliferative effectiveness compared with lunasin peptide alone [8] |
| --- | --- | --- | --- | --- | --- | --- | --- | --- | --- | --- | --- | --- |
| lunasin | unaffected |  |  |  |  |  |  |  |  |  |  |  |
| soybean-derived lunasin: lunasin polypeptide purified from soybean white flake, 5139.25 Da, corresponding to SEQ ID NO: 2 (additional C-terminal Asn) (SKWQHQQDSCRKQLQGVNLTPCEKHIMEKIQGRGDDDDDDDDDN; Glycine max) |  | affinity greater than that observed using a synthetic lunasin; also recorded: bound to both H4 and H3 in a dose dependent manner | affinity greater than that observed using a synthetic lunasin; also recorded: bound to both H4 and H3 in a dose dependent manner | higher affinity for H4 than for H3 | minor effect | significantly inhibit the growth | minor effect | significantly enhanced the antiproliferative effect of curcumin |  |  |  |  |
| synthetic lunasin: synthetic lunasin created by peptide synthesis, comprised of SEQ ID NO: 1 [reference compound] |  | binding was lower than observed using the soybean-derived lunasin | binding was lower than observed using the soybean-derived lunasin | more binding to H4 compared to H3 |  |  |  | significantly enhanced the antiproliferative effect of curcumin |  |  |  |  |
| lunasin-containing complex: lunasin polypeptide of SEQ ID NO: 2 linked by disulfide bridges to a second polypeptide of SEQ ID NO: 3, 14.1 kDa, from soybean (protein, disulfide-linked complex; Glycine max) chain 1: SKWQHQQDSCRKQLQGVNLTPCEKHIMEKIQGRGDDDDDDDDDN chain 2: EGKDEDEEEEGHMQKCCTEMSELRSPKCQCKALQKIMENQSEELEEKQKKKMEKELINLATMCRFGPMIQCDLSSDD |  |  |  |  | most sensitive | most sensitive | most sensitive |  | reduced proliferation | reduced proliferation | reduced proliferation | more effective than the lunasin peptide alone |
